T1: 4K-6H-NS2/3 (904-1206)st-4K (Hepatitis C virus genotype 1b)
T1 chain: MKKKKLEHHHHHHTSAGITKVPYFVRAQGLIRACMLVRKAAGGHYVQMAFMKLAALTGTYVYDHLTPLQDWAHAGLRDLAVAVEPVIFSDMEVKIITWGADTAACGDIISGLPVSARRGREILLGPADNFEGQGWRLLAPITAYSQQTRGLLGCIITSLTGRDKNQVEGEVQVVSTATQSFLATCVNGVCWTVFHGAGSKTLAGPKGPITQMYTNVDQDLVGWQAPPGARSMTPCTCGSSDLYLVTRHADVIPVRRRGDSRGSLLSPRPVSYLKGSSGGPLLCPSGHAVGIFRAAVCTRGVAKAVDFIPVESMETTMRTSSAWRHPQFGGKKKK


Molecular target: T1, 4K-6H-NS2/3 (904-1206)st-4K
Experiment: cell-based or functional assay

Going from APITAY [Peptide 5, APITAY] to SFEGQGWRLLAPITAYSQQT [Peptide 1, SFEGQGWRLL-APITAYSQQT], the “IC50, inhibition of NS2/3 autocleavage” value falls from 1000 µM to 270 µM (3.7-fold).

First: SFEGQGWRLL [Peptide 2, SFEGQGWRLL]
Second: APITAYSQQT [Peptide 3, APITAYSQQT]
The “IC50, inhibition of NS2/3 autocleavage” value of the first is lower: 90 µM for the first, over 1000 µM for the second.

For KGWRLLAPITAY [Peptide 4, KGWRLL-APITAY], the “IC50, inhibition of NS2/3 autocleavage” value was 630 µM.

Source: patent US20020192640A1 (Boehringer Ingelheim, published 2002)
